In patent US20200164071A1 (GENSUN BIOPHARMA, published 2020):
Positions count from the first letter of the chain named. Blank lines part the entries; values can stand above or below the binder they belong to.

Key:
[1] = target: T1, human TIGIT on CHO-K1 cells (human, UniProt Q495A1 23-244); assay: flow cytometry competition with biotinylated hPVR-mIg on CHO-K1 cells expressing human TIGIT
T1 construct: also called hu TIGIT; TIGIT+CHO-K1 cells
T1 sequence: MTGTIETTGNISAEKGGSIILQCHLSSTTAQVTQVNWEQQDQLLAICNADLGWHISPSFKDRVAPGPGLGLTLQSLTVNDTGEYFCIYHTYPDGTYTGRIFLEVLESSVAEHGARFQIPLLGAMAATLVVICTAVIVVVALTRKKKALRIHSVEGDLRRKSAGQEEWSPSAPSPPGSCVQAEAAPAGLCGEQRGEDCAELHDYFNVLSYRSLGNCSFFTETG
Experimental: The cells were washed 2 times before staining with PE streptavidin (BioLegend) for 20 min at 4 C. The cells were then washed, resuspended in 30 μl 7 AAD solution, and 35 μl of 10% neutral buffered formalin solution was added. The cells were then incubated for 15 min. Flow cytometry was performed and IC50 was calculated using iQue intellicyt system.

[2] = target: T1, human TIGIT on CHO-K1 cells; assay: flow cytometry blocking assay: PVR (hPVR-mIg, m14, by Examples 4 and 6) on human TIGIT CHO-K1 cells (Example 16); title: Blocking PVR binding to TIGIT
[3] = target: T2, human PD-1 on CHO-K1 cells (human, UniProt Q15116 25-288); assay: flow cytometry blocking assay: FITC human PD-L1-Fc on human PD-1 CHO-K1 cells (Examples 11 and 16); title: Blocking PD-L1 binding to PD-1
T2 construct: also called Human PD-1 transfected CHO-K1 cells
Experimental: (§1) Human or Cyno PD-1 transfected CHO-K1 cells were washed with FACS buffer (0.5% BSA 2 mM EDTA in PBS) and re-suspended at a concentration of 10⁶ cells/ml. […] The cells were then washed and re-suspended in 30 μl 7 AAD solution; 35 μl 10% neutral buffered formalin solution was then added and incubated for 15 mins. before analysis using the iQue intellicyt system.

[4] = target: T2, human PD-1 on CHO-K1 cells; assay: flow cytometry blocking assay: FITC human PD-L1-Fc on human PD-1 CHO-K1 cells (Example 11; the legend paragraph 42 calls it binding to hu PD-L1)
Experimental: as §1

[5] = target: T3, cyno PD-1 on CHO-K1 cells (cyno); assay: flow cytometry blocking assay of Example 11, PD-L1 on cyno PD-1 CHO-K1 cells; cyno taken from the legend paragraph 42 ('cyno-hu'), while Example 11 speaks of human PD-1 and human PD-L1 for this figure
T3 construct: whole, on cells; also called cyno hu PD-1; Cyno PD-1 transfected CHO-K1 cells
Experimental: as §1

[6] = target: T2, human PD-1 on CHO-K1 cells; assay: flow cytometry blocking assay: FITC human PD-L1-Fc on human PD-1 CHO-K1 cells (Example 11)
Experimental: as §1

[7] = target: T4, His tagged human PD-1 protein (human, UniProt Q15116 25-170, limits assumed); assay: bio-layer interferometry (Octet RED96), antibody on anti-human IgG capture biosensors, His tagged human PD-1 as analyte, 1:1 global fit (Example 12)
T4 construct: also called huPD-1-His; not shown: His tag
Experimental: […] was carried out using the Octet RED96 system (ForteBio Octet RED96 System) to characterize the binding kinetics of antibodies against His tagged human PD-1 protein. 20 nM of antibody was loaded onto the anti-human IgG capture biosensors. Association of analyte (His tagged human PD-1 protein) was observed by placing the biosensors in wells containing 2 or 3 fold serial dilution of analytes (72 nM being the highest concentration) for 5 mins. Dissociation was measured after transfer of the biosensors into kinetic buffer alone and monitoring of the interferometry signal for 10 minutes. The observed on and off rates (Ka and Kd) were fit using a 1:1 binding global fit model comprising at least 5 concentrations tested, and the equilibrium binding constant KD was then calculated.

T2 sequence (Q15116 25-288): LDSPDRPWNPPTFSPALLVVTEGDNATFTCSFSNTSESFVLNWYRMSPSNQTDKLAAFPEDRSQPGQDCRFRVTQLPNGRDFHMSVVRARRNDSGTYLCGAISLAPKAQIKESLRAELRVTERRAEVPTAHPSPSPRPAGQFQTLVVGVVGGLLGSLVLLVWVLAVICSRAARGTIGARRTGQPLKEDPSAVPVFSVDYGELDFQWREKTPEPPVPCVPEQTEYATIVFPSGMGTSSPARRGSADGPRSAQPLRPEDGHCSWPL
T4 sequence (Q15116 25-170 limits assumed): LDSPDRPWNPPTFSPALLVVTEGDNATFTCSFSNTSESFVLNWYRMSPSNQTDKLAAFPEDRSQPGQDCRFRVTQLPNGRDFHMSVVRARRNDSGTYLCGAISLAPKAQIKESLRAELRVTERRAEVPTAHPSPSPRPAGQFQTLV

B1: T-02 (antibody, V domains shown)
VH: QVKLQESGPGLVKPSQTLSLTCTVTGYSITSDYAWNWIRQPPGKGLEWIGYITYSGGTSYNPSLKSRVTISVDTSKNQFSLKLSSVTAADTAVYSCARRQIGLGFTYWGQGTLVTVSA
VL: DIQMTQSPSSLSASVGDRVTIPCKASQDLSTAVAWYQQKPGKAPKLLIYSSSYRYTGVPSRFSGSGSGTDFTLTISSLQPEDFATYYCQQSYSTPQQHYSTPWTFGEGTKLEIK
notes: Anti-human TIGIT monoclonal antibody from mouse hybridoma; also called anti-hu TIGIT mab T-02
IC50 [1]: 0.35 to 0.71 nM

B4: T-05 (antibody, V domains shown)
VH: EVQLKQSGAEVKKPGATVKISCKVSGYTFTDQAIHWVQQAPGKGLEWMGYIYPRDGSTKYNETFKGRVTITADTSTDTAYMELSSLRSEDTAVYFCARGMLRWFAYWGQGTLVTVSS
VL: DIQMTQSPSSLSASVGDRVTITCKASQDVSTAVAWYQQKPGKAPKLLIYSASYRYTGVPSRFSGSGSGTDFTLTISSLQPEDFATYYCQQHYSTPLTFGAGTKLELK
notes: Anti-human TIGIT monoclonal antibody from mouse hybridoma; also called anti-hu TIGIT mab T-05
IC50 [1]: 0.2 to 0.46 nM

B5: T-03 (antibody, V domains shown)
VH: B4 VH with K5V, Q32H, A33T, I51F, T63K, F95Y, R98T, Y106D, V113I, S117V
VL: B4 VL with A32T
notes: Anti-human TIGIT monoclonal antibody from mouse hybridoma; also called anti-hu TIGIT mab T-03
IC50 [1]: 0.26 to 0.52 nM

B7: T-06 (antibody, V domains shown)
VH: B1 VH with K3Q, T25S, Y27G, I29V, T30S, G57S, S95Y, I101V, T106A
VL: B4 VL with R54H, L96W, A100G, L106I
notes: Anti-human TIGIT monoclonal antibody from mouse hybridoma; also called anti-hu TIGIT mab T-06
IC50 [1]: 0.84 nM

B9: PD-06 (antibody, V domains shown)
VH: QVQLVQSGAEVKKPGASVKVSCKASGYTFTSYYIHWVRQAPGQRLEWMGWIFPGSGNSKYNENFKGRVTITRDTSASTAYMELSSLRSEDTAVYFCASETYDYGDYWGQGTLVTVSS
VL: DIQMTQSPSSLSASVGDRVTITCKASQNVGTNVAWYQQKPGKAPKSLIYSASYRYSGVPSRFSGSGSGTDFTLTISSLQPEDFATYFCQQYYSYPYTFGQGTKLEIK
notes: also called anti-PD-1 mab PD-06
IC50 [4]: 0.65 nM | IC50 [5]: 2.14 nM

B10: PD-02 mab (antibody, V domains shown)
VH: QVQLVQSGAEVKKPGASVKVSCKASDYTFTNSYLYWLRQAPGQGLEWMGGINPSNGGTNFNEKFKTRTTSTRDTSISTAYMELSRLRSDDTVVYYCTRRDYNYDGGFDSWGQGTLVTVSS
VL: DIQMTQSPSSLSASVGDRVTFTCRASSTLYSNYLHWYQQKPGKAPKLLIYRASFLASGVPSRFSGSGSGTDFTLTISSLQPEDFATYYCQQGSSIPLTFGGGTKVEIK
IC50 [4]: 0.54 nM | IC50 [6]: 2.05 nM | Kd [7]: 3.7 nM | koff [7]: 0.000395 s⁻¹ | kon [7]: 106000 M⁻¹ s⁻¹ | IC50 [5]: 1.72 nM

B11: PD-04 (antibody, V domains shown)
VH: B10 VH with L34I, L37V, T68V, T97A
VL: B10 VL with T28S
notes: also called anti-PD-1 mab PD-04
IC50 [4]: 0.82 nM | IC50 [5]: 2.15 nM

More lines, now with the values ahead:

IC50 [2]: 0.4 nM
B2: TP-M10T8P5 (TP-92) (bispecific antibody, human IgG4 S228P)
heavy: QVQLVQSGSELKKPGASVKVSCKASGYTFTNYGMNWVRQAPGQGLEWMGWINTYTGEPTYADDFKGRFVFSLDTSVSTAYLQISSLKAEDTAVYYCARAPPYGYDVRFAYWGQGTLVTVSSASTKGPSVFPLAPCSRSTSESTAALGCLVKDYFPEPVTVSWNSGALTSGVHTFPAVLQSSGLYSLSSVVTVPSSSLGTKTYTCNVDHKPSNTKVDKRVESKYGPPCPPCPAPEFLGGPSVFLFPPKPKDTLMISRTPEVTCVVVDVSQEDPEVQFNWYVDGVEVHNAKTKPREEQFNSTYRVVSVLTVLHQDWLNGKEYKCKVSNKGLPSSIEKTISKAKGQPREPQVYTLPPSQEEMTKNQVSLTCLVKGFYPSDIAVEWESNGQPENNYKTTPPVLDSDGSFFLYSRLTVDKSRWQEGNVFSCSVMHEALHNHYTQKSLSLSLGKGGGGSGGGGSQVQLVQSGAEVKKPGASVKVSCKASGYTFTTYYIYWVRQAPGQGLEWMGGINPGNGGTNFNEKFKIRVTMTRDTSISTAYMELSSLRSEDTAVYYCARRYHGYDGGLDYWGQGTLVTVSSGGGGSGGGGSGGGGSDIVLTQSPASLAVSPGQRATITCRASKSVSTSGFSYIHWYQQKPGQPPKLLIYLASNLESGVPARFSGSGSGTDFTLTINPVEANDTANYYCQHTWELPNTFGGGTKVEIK
light: DVVMTQSPLSLPVTLGQPASISCRSSQSIVHSNGNTYLEWFQQRPGQSPRVLIYKVSDRFSGVPDRFSGSGSGTDFTLKISRVEAEDVGVYYCFQGSHVPWTFGRGTKLEIK
notes: Anti-TIGIT x anti-PD-1; The tie is in embodiment wording ('about 80% to about 100% homologous to')

IC50 [2]: 0.21 nM | IC50 [3]: 1.8 nM
B3: TP-M8T10P1 (TP-83) (bispecific antibody)
heavy: QVQLVQSGAEVKKPGASVKVSCKASGYTFTSYYMHWVRQAPGQGLEWMGIINPSGGRTSYAQMFQGRVTMTRDTSTSTVYMELSSLRSEDTAVYYCARDREEQWPVGGFDYWGQGTLVTVSS
light: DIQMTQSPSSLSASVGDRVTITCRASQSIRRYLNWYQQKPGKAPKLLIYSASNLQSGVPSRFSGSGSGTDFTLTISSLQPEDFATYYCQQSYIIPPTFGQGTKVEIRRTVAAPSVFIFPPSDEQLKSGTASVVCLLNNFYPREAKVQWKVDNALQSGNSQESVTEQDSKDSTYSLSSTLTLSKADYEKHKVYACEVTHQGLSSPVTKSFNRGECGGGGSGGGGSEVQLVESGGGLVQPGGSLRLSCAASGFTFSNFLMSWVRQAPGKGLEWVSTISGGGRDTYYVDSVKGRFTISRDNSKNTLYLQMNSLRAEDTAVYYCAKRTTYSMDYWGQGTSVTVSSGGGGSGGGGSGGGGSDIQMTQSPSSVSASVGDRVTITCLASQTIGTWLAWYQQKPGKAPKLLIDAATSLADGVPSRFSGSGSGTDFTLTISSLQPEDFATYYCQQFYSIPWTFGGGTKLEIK
notes: as for B2

IC50 [1]: 0.5 nM
B6: T-07 (antibody, V domains shown)
VH: EVQLQESGPGLVKPSDTLSLTCAVSGYSITSDSAWNWIRQPPGKGLEWIGYITYSGSTNYNPSLRSRVTMSVDTSKNQFSLKLSSVTAVDTAVYYCTRRQVGLGFAYWGQGTLVTVSA
VL: B4 VL with Y55F, V58A, A84G, T85I, Q90H, L96W, A100G, L106F
notes: Anti-human TIGIT monoclonal antibody from mouse hybridoma; also called anti-hu TIGIT mab T-07

IC50 [1]: 0.36 to 0.42 nM
B8: T-09 (antibody, V domains shown)
VH: QVTLKESGPTLVKPTQTLTLTCTFSGFSLSTFAMGVGWIRQPPGKALEWLAHIWWDDDKYYNPALKSRLTITKDTSKNQVVLTMTNMDPVDTATYYCARMDYSYFAWFAYWGQGTLVTVSS
VL: QAVVTQEPSLTVSPGGTVTLTCRSSTGAVTTSNYANWVQQKPGQLFRGLIGGTNNRAPWVPARFSGSLIGDKAALTLSGVQPEDEAEYFCALWYSNHWVFGGGTKLTVL
notes: Anti-human TIGIT monoclonal antibody from mouse hybridoma; also called anti-hu TIGIT mab T-09

IC50 [2]: 0.4 nM | IC50 [3]: 1.4 nM
B12: TP-M9T10P1 (TP-93) (bispecific antibody, human IgG4 S228P, kappa)
heavy: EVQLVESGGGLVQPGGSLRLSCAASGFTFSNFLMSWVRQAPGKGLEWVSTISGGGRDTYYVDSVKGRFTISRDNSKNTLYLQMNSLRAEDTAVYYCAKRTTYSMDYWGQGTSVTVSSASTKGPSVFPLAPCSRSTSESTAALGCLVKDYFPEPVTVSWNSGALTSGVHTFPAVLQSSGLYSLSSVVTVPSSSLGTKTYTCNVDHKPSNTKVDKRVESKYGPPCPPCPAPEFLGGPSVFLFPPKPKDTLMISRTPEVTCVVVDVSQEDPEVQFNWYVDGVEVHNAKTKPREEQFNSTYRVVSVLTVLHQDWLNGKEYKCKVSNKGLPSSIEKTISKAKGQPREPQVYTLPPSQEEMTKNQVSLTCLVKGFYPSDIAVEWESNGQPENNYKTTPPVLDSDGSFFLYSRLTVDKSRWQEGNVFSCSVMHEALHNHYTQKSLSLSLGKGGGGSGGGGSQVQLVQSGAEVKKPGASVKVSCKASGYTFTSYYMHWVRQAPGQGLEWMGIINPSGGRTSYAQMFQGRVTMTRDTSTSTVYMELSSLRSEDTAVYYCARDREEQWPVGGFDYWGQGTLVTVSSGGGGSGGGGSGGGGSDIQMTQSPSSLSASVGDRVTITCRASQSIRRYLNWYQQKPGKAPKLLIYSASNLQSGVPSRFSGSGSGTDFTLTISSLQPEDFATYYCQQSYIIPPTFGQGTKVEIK
light: DIQMTQSPSSVSASVGDRVTITCLASQTIGTWLAWYQQKPGKAPKLLIDAATSLADGVPSRFSGSGSGTDFTLTISSLQPEDFATYYCQQFYSIPWTFGGGTKLEIKRTVAAPSVFIFPPSDEQLKSGTASVVCLLNNFYPREAKVQWKVDNALQSGNSQESVTEQDSKDSTYSLSSTLTLSKADYEKHKVYACEVTHQGLSSPVTKSFNRGEC
notes: as for B2
